The record followed here is patent publication US20210246178A1 (DEUTSCHES KREBSFORSCHUNGSZENTRUM STIFTUNG DES FFENTLICHEN …, published 2021).

This data set deals with the molecule itself. Nature of the data set: X-ray crystal structure, 1.53 Å.

B1: MSBI1.176 Rep protein WH1 domain (residues 1-135) (other)
chain: MSDLIVKDNALMNASYNLALVEQRLILLAIIEARETGKGINANDPLTVHASSYINQFNVERHTAYQALKDACKDLFARQFSYQEKRERGRINITSRWVSQIGYMDDTATVEIIFAPAVVPLITRLEEQFTQYDIE
notes: This entry is one protomer; Two protomers (A and B) form the WH1 homodimer in the crystal, so the self-pair is written as m1 with m1; The construct of residues 1-135 was expressed in E. coli as a His-tagged fusion in modified pMal-c2X and cleaved with HRV-3C protease; also called MSBI1.176 WH1; MSBI1 WH1
B1: the binding result is “binds”.
